The record followed here is patent US20030180744A1 (published 2003).

Test [1] has as its target T1, hKGF receptor present in the PC-3 plasma membrane extracts (UniProt P21802-3 22-822, limits assumed).
T1 construct: A crude detergent extract, not a purified protein; Two complexes (C1, C2) were seen; also called component found in the PC-3 membrane extracts
Kind of test: gel shift competition: unlabeled hKGF against 125I-hKGF with PC-3 plasma membrane extract. The procedure: (§1) For electrophoretic mobility shift gels, about 3×10⁷ PC-3 cells were gently spun and washed with PBS and then lysed by mixing with equal volume of lysis buffer containing 40 mM Hepes, pH 7.4, 150 mM NaCl, 20% glycerol, 2% triton X-100, 0.1% sodium azide, 3 mM MgCl₂, 3 mM EGTA, 2 μM aprotinin, 2 μM leupeptin, 2 mM PMSF, and 400 μM sodium orthovanadate. Following 15 min incubation on ice the extract was spun at 11,000 g at 4° C. for 30 min to remove debris and nuclei and the supernatant was aliquoted and stored at −70° C. […] Following a 10 min incubation at room temperature, 6× loading dye was added to achieve 1× concentration, and the samples were loaded onto a 5% or 10% native TBE polyacrylamide gel. The gel was prerun at room temperature at 100 Volts. Following loading, the gel was run at 200 Volts for 5 min and then at 100 Volts for 30-60 min at room temperature. The radioactive bands were then visualized by autoradiography.
On the technique in general: A gel shift assay detects complexes by their altered migration in electrophoresis.

In test [2] the target is T1, hKGF receptor present in the PC-3 …. Kind of test: native gel electrophoretic mobility shift of 125I-hKGF by PC-3 plasma membrane extract. How it is done: as §1

For orientation: IC50 means the midpoint of a concentration-inhibition curve. In general, Kd refers to the constant that tells how readily two partners part at equilibrium.

T1 sequence (P21802 other isoform, or with tags, fused parts or gaps limits assumed): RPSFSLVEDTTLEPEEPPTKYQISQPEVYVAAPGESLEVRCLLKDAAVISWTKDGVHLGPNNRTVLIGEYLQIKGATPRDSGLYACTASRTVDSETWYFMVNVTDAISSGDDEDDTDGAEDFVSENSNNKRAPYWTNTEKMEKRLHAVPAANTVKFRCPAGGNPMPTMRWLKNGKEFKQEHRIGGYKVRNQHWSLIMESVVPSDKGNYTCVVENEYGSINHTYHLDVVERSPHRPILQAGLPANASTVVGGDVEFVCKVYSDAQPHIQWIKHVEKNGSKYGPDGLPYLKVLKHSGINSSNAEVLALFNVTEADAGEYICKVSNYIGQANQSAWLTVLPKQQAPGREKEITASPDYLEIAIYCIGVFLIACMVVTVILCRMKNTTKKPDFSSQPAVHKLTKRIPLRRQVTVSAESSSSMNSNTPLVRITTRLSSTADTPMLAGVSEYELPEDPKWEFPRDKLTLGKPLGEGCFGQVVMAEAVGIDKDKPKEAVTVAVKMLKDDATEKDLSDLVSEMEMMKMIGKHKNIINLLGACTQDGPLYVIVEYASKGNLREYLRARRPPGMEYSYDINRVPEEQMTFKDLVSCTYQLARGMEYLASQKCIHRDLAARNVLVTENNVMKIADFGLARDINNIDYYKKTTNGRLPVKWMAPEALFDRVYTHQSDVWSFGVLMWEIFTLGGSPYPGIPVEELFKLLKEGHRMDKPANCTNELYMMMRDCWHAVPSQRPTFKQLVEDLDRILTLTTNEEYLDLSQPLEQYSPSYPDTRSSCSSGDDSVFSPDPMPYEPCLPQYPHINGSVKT

B1: Recombinant human Keratinocyte Growth Factor (hKGF) (ligand, UniProt P21781 32-194, looked up)
chain: CNDMTPEQMATNVNCSSPERHTRSYDYMEGGDIRVRRLFCRTQWYLRIDKRGKVKGTQEMKNNYNIMEIRTVAVGIVAIKGVESEFYLAMNKEGKLYAKKECNEDCNFKELILENHYNTYASAKWTHNGGEMFVALNQKGIPVRGKKTKKEQKTAHFLPMAIT
notes: also called FGF-7
For B1, the IC50 in test [1] is 70 nM. For the same molecule, the Kd in test [2] is around 8 nM.
